Biological target: Tau (2N4R Tau; Tau(291–391)) 2-441 (UniProt P10636)
Experiment: solid-phase ELISA, immobilised fragment, soluble Tau
Details: reference: unmodified (WT) Tau(291–391)

Q: For “Tau (2N4R Tau; Tau(291–391)) 291-391 (from UniProt P10636-8) pS305 Tau(291–391)”, which “binding against the reference” value (sites S305) is on record?
A: weaker

Q: “Tau (2N4R Tau; Tau(291–391)) 291-391 (from UniProt P10636-8) pS352 Tau(291–391)” was tested. Which “binding against the reference” value (sites S352) did it give?
A: weaker

Q: How did the “binding against the reference” value (sites S356) turn out when “Tau (2N4R Tau; Tau(291–391)) 291-391 (from UniProt P10636-8) pS356 Tau(291–391)” was run?
A: weaker
